We go through 7 molecules from US10472652B2, “Chemical engineering processes and apparatus for the synthesis of compounds” (TEEWINOT T[…], priority 2013, dated 2019).

The target in the series is T1, THCA synthase (Cannabis sativa, UniProt Q8GTB6).
T1 construct: His-tag (C); made in house; host or cells: Pichia pastoris (PichiaPink, pPink-HC vector), secreted into the medium; cell-free T3 supernatant used
T1 sequence (Q8GTB6 29-545): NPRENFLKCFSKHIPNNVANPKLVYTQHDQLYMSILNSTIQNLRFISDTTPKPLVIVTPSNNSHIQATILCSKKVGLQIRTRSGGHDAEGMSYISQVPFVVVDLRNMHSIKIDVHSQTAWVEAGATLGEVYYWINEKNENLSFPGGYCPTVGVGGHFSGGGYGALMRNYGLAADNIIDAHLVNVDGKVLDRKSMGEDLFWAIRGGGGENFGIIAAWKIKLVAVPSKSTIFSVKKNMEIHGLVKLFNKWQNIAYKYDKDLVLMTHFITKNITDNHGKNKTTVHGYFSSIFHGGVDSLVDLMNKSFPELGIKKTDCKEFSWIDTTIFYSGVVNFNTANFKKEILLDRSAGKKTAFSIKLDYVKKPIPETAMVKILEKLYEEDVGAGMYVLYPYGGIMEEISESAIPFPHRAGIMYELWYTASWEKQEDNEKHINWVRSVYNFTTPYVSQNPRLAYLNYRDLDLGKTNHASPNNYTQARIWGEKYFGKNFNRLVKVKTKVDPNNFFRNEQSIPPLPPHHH
The experiment in a line: catalytic activity of THCA synthase from independent colonies of transformed pPink yeast cells (conversion of CBGA to THCA). The class given is biochemical. As to conditions: 25 μl cell free supernatant of T3 sample, 100 mM citrate buffer, 10% DMSO, final pH 5.0, 2 hours at 30° C. As to the method: After 24 hours a 100 μL of the cell sample was removed to which was added 100 μL of 40% methanol to induce enzyme production. This methanolic sample was then centrifuged at 12,000 rpm for 5 minutes and the supernatant and pellet were saved as the T1 sample. A second culture sample was obtained after a 48 hour incubation period and treated with methanol as described above. After centrifugation, the supernatant and pellet are saved as the T2 sample. At 72 hours the entire incubation mixture is treated with an appropriate volume of 40% methanol. The supernatant and pellet obtained from methanolic treatment of the culture after a 72 hour incubation period is labeled as T3. The T3 supernatant was spun through an Amicon 30 kD protein filter and analyzed for protein using an SDS-PAGE gel.
The catalytic activity of THCA synthase was measured by incubating 25 μl of the cell free supernatant from a T3 sample with 25 μl of a 1 mg/ml CBGA stock in 200 μl of a 100 mM citrate buffer at pH 4.8 having 10% DMSO for 2 hours at 30° C. The final concentration of CBGA in the reaction mixture was 0.1 mg/ml and the final pH is 5.0. Table 4 illustrates the data related to the catalytic activity of THCA synthase obtained from independent colonies of transformed pPink yeast cells, namely. pPink yeast cells that were transformed using linearized THCA synthase plasmids. Culture samples that converted greater than 20% of the substrate CBGA to product THCA were selected for scale up.

B1: Pme THC(2) #42: cell free supernatant with THCA synthase from a pPink yeast colony transformed with Pme I linearized THCA synthase plasmid (protein, UniProt Q8GTB6 29-545, looked up)
Tetrahydrocannabinolic acid …: T1 sequence (Q8GTB6 29-545)
modifications: yeast culture supernatant
notes: cell free supernatant with THCA synthase from a pPink yeast colony transformed with Pme I linearized THCA synthase plasmid
For B1, the “% Conversion of CBGA to THCA in reaction containing 0.1 mg/ml CBGA.” value (shortened to “% Conversion of CBGA to THCA”) was 27.6%.

B2: Pme THC(3) #17: cell free supernatant with THCA synthase from a pPink yeast colony transformed with Pme I linearized THCA synthase plasmid (protein, UniProt Q8GTB6 29-545, looked up)
Tetrahydrocannabinolic acid …: T1 sequence (Q8GTB6 29-545)
modifications: yeast culture supernatant
notes: as for B1
Turning to B2, the “% Conversion of CBGA to THCA” value is 69.9%.

B3: Pme THC(3) #19: cell free supernatant with THCA synthase from a pPink yeast colony transformed with Pme I linearized THCA synthase plasmid (protein, UniProt Q8GTB6 29-545, looked up)
Tetrahydrocannabinolic acid …: T1 sequence (Q8GTB6 29-545)
modifications: yeast culture supernatant
notes: as for B1
As for B3, the “% Conversion of CBGA to THCA” value worked out at 36.8%.

B4: Pme THC(2) #51: cell free supernatant with THCA synthase from a pPink yeast colony transformed with Pme I linearized THCA synthase plasmid (protein, UniProt Q8GTB6 29-545, looked up)
Tetrahydrocannabinolic acid …: T1 sequence (Q8GTB6 29-545)
modifications: yeast culture supernatant
notes: as for B1
For B4, the “% Conversion of CBGA to THCA” value is on record as 26.8%.

B5: Pme THC(3) #1: cell free supernatant with THCA synthase from a pPink yeast colony transformed with Pme I linearized THCA synthase plasmid (protein, UniProt Q8GTB6 29-545, looked up)
Tetrahydrocannabinolic acid …: T1 sequence (Q8GTB6 29-545)
modifications: yeast culture supernatant
notes: as for B1
For the molecule B5, the “% Conversion of CBGA to THCA” value was determined as 55.2%.

B6: Pme THC(2) #46: cell free supernatant with THCA synthase from a pPink yeast colony transformed with Pme I linearized THCA synthase plasmid (protein, UniProt Q8GTB6 29-545, looked up)
Tetrahydrocannabinolic acid …: T1 sequence (Q8GTB6 29-545)
modifications: yeast culture supernatant
notes: as for B1
Turning to B6, the “% Conversion of CBGA to THCA” value is recorded as 40.7%.

B7: Pme THC(3) #11: cell free supernatant with THCA synthase from a pPink yeast colony transformed with Pme I linearized THCA synthase plasmid (protein, UniProt Q8GTB6 29-545, looked up)
Tetrahydrocannabinolic acid …: T1 sequence (Q8GTB6 29-545)
modifications: yeast culture supernatant
notes: as for B1
Take B7: the “% Conversion of CBGA to THCA” value came to 35.0%.
